From article PMC11804868

Assays:
[1] = molecular target: DEBSIII TE wild type (thioesterase domain of the erythromycin polyketide synthase DEBSIII) (Saccharopolyspora erythrea); experiment: SEC
[2] = molecular target: TylG5 TE wild type (thioesterase domain of the tylosin polyketide synthase TylG5) (Streptomyces fradiae); experiment: SEC

Substance | stoichiometry N [1] | stoichiometry N [2]
DEBSIII TE wild type (thioesterase domain of the erythromycin polyketide synthase DEBSIII) (domain or fragment) | 2 | 
TylG5 TE wild type (thioesterase domain of the tylosin polyketide synthase TylG5) (domain or fragment) |  | 2
